Laboratory results reported in paper doi:10.1101/2024.07.30.605912 (bioRxiv, 2024).

Molecular target: the molecule itself
Experiment: cryo-EM structure

B1: Salmonella typhimurium ArnC (undecaprenyl-phosphate 4-deoxy-4-formamido-L-arabinose transferase) (enzyme)
chain: MFDAAPIKKVSVVIPVYNEQESLPELIRRTTTACESLGKAWEILLIDDGSSDSSAELMVKASQEADSHIISILLNRNYGQHAAIMAGFSHVSGDLIITLDADLQNPPEEIPRLVAKADEGFDVVGTVRQNRQDSLFRKSASKIINLLIQRTTGKAMGDYGCMLRAYRRPIIDTMLRCHERSTFIPILANIFARRATEIPVHHAEREFGDSKYSFMRLINLMYDLVTCLTTTPLRLLSLLGSVIAIGGFSLSVLLIVLRLALGPQWAAEGVFMLFAVLFTFIGAQFIGMGLLGEYIGRIYNDVRARPRYFVQQVIYPESTPFTEESHQ
stoichiometry N: 4
